From PMC7984168, “Heat Shock Protein HSP24 Is Involved in the BABA-Induced Resistance to Fungal Pathogen in Postharvest Grapes Underlying an NPR1-Dependent Manner”

Target: VvHSP24 (class B HSP/HSF, AtHSFB1 ortholog) (Vitis vinifera, UniProt A0ACM8QKQ1 1-286)
Assay: EMSA; LightShift chemiluminescent EMSA kit (Pierce); buffer, salt, pH and temperature not stated; 200-fold mutant competitor
Conditions: protein: recombinant; tags: His (pCzn1); label: 5' biotin

Sequence of VvHSP24 (class B HSP/HSF, AtHSFB1 ortholog) (A0ACM8QKQ1 entry or part of it): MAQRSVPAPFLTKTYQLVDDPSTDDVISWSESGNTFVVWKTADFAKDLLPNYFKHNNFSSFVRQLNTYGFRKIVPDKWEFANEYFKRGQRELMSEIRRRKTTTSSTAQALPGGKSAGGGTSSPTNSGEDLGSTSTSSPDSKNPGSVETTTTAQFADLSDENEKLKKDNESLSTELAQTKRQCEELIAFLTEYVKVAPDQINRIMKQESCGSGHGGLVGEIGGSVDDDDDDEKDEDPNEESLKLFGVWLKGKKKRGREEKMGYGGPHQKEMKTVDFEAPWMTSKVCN

Binder	binding result
PR1 promoter HSE probe (dsDNA) DNA 1: GGCCCGCATGAGTTACAACAAGAAGAAATTTCAAATATTGCTCTCCGTGG DNA 2: CCACGGAGAGCAATATTTGAAATTTCTTCTTGTTGTAACTCATGCGGGCC	no binding
PR2 promoter HSE probe (dsDNA) DNA 1: CATCTCAATATCAATATTTAAGAACTTTCTAATAAAATCATCCTTATCCGG DNA 2: CCGGATAAGGATGATTTTATTAGAAAGTTCTTAAATATTGATATTGAGATG	no binding
PR5 promoter HSE probe (dsDNA) DNA 1: GGAACTGATTCCCTAAAACAGAAAAGAATGTATGAACCTTCCTAAAATAC DNA 2: GTATTTTAGGAAGGTTCATACATTCTTTTCTGTTTTAGGGAATCAGTTCC	no binding
